Article PMC4764565

Biological target: EphB2-KD-GFP (UniProt P54763)
Assay: co-IP; anti-GFP antibody on ProteinA/G agarose, overnight, pre-cleared lysates of co-transfected HEK293 cells (10mM Tris-Cl pH 8, 137 mM NaCl, 2mM EDTA, 1% NP40); blot for Myc; in the ligand experiments cells were starved 2 hr in OPTIMEM and incubated 15 min at 37°C with pre-clustered Fc, eB2-Fc or eA3-Fc (1.5 μg/ml), Netrin-1 (250 ng/ml) or eB2-Fc+Netrin-1 before lysis

Sequence of Unc5c-Myc (O08747 41-931): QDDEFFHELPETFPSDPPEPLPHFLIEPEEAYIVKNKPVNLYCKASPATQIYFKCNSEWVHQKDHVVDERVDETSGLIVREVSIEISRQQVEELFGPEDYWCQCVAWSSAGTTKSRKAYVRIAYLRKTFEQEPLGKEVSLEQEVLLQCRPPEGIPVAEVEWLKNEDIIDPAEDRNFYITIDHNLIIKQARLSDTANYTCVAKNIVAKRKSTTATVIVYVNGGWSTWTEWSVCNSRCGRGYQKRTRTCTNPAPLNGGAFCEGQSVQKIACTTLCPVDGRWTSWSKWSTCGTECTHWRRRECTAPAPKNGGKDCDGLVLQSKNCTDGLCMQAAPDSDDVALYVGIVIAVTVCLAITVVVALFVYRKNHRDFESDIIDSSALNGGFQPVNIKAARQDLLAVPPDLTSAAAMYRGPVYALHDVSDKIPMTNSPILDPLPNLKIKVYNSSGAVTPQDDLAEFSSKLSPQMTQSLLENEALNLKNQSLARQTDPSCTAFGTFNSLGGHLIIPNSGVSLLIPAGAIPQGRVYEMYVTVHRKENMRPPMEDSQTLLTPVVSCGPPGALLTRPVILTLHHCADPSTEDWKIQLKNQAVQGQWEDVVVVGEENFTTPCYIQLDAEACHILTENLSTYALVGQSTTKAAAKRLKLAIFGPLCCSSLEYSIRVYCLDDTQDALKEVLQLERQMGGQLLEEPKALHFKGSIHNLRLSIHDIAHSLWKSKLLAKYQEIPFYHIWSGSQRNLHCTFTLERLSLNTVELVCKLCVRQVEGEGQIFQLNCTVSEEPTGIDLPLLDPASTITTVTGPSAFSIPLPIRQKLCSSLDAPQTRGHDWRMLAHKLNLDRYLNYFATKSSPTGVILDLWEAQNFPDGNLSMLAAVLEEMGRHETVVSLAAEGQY
Sequence of EphB2-KD-GFP (P54763 19-986): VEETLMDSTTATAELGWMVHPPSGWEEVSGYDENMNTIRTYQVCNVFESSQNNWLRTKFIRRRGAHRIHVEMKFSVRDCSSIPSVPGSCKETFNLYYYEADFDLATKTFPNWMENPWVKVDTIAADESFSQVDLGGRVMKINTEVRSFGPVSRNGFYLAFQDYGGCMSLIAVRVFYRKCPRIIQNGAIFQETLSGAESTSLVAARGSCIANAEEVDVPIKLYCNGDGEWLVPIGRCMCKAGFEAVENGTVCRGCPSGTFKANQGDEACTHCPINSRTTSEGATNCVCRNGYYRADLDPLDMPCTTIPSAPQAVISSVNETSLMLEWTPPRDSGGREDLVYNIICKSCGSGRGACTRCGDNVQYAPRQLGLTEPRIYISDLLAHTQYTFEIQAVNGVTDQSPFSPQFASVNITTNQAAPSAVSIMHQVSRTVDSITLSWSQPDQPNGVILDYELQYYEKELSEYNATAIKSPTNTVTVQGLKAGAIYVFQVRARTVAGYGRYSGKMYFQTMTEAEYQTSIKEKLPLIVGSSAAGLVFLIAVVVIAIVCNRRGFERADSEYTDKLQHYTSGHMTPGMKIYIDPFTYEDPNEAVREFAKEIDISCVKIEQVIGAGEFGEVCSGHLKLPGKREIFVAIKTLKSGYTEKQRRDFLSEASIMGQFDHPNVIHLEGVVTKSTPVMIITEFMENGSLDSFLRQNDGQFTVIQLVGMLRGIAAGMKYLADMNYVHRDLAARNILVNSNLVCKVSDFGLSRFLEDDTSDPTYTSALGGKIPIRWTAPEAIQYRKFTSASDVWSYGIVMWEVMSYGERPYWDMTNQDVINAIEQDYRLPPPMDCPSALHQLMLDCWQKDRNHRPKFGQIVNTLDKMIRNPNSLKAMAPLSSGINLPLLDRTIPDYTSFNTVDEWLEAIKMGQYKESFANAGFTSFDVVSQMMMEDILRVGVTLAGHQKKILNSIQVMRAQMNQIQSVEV

percent reduction of the interaction against wild-type EphB2-GFP: 67%
Substance: Unc5c-Myc (from UniProt O08747 41-931) (receptor)
